Substrate: O=C(O)C[C@H](O)C(=O)O
Assay: purified protein
Format: biochemical, Methanocaldococcus jannaschii
Conditions: pH 7.2, 50 mM Tris-HCl, 70 °C

B1: MjFH (MjFHαβ), holo, Fe-S reconstituted (Methanocaldococcus jannaschii DSM 2661) (protein)
chain 1: MKISDVVVELFREAAIYLPEDVKNALEEAYKKESSEISKNTLKAIIENNKIAEETQVPLCQDTGVPIVFLKIGKNINSSEIMKIIEEIKEGVKKATEEVPLRPNVVHPLTRENFKTNVGLNSPFINIEFDESLDREIEIIAFPKGAGSENMSALKMLKPSDGIEGIKNFVLETIANAGGKPCPPIVVGIGIGGTADVALKLAKKALLRKIGERHRDKEIANLEKELLEKINSLGIGAMGLGGDITALDVFIEIAGCHTASLPVGICIQCWADRRAIKRIKLDAKL
chain 2: MEYTFNKLTKKDVKKLKVGDIVYLNGKIYTARDEAHLKIIEMLKSNEKLPFDLNESIIYHAGPIMKKVNDSWVCVSIGPTTSARMNDVEEEFIKLTNISAIVGKGGMKKELLKTFEDYGVVYLAAPGGCAALLANSVKRVDNVYFLDELGMPEAVWELEVNNFGPLIVAMDSHGNSIYEEVNKKVYEKLNELIGL
Km: 1554 ± 169 µM
